Experimental data taken from the nanobody polyreactivity screen of Harvey et al. (2022).

Assay: yeast display, Sf9 membrane polyspecificity reagent, FACS + sequencing; frameworks hold sequencing errors
Summary of the method: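 Nanobodies from a synthetic yeast display library (Saccharomyces cerevisiae BJ5465), induced 36–48 hours with galactose, were stained 1 hour at 4 °C with 10% biotinylated, detergent-solubilized Sf9 membrane reagent, enriched on streptavidin microbeads, then FACS-sorted. Anti-HA (expression) and streptavidin (reagent binding) fluorescence set low and high (top ~1%) gates. Polyreactivity labels come from the gate of origin. Genes were colony-PCR amplified, MiSeq 2 × 250 sequenced and filtered by CDR length.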

| Sequence | polyreactivity (PSR sort gate) |
| --- | --- |
| QVQLVESGGGLVQAGGSLRLSCAASGRIGYNVMGWYRPAPGKERELVADISRGGGRTYYADSVKGRFTISRDNAKNTVYLQMNSLKPEDTAVYYCNAVTYYVDGGWYDYDYWGQGTQVTVSS | high polyreactivity |
| QVQLVESGGGLVQAGGSLRLSCAASGRIGYYAMGWNRQAPGKERELVAAISYGGGSTYYADSVKGRFTISRDNAKNTVYLLMNSLKPEDTAVYYCAARWGKSWRGYGYWGQGTQVSVSS | high polyreactivity |
| QVQLVESGGGLVQAGGSLRLSCAASGRIGYYAMGWYRQAPGKERELVAAISYGGGSTYYADSVKGRFTISRDNAKNTVYLQMNSLKPEDTAVYYCAARWGISWRGYGYWGQGTQVTVSS | high polyreactivity |
| QVQLVESGGGLVQAGGSLRLSCAASGRIIAGYAMGLYRQAPGKERELVAAISSGGSTYYADSVKGRFTISRDNAKNTVYLQMNSLKPSDTAVYYCAAGGPRVYGTKFYYCGQGTQVTVSS | high polyreactivity |
| QVQLVESGGGLVQAGGSLRLSCAASGRIIDNNAMGWYRPAPGKERQLVAAISWSGTSTYYADSVKGRFTISRDHAKNTVYLQMNSLKPEDTAVYYCNADSWFYTRFDYWGQGTQVTVSS | high polyreactivity |
| QVQLVESGGGLVQAGGSLRLSCAASGRIIGFNAMGWYIQAPAKERELVASIRTTGGSTRYADSVKWRFTISRDNATNTVYLQMNSLKPEDTAVYYCADRWCKTLWQYNYWGQGTQVTVSS | high polyreactivity |
| QVQLVESGGGLVQAGGSLRLSCAASGRIIGQYAMGWYRQAPGKERELVAAITQRGGSTYYADSVKGRFTISRDNAKNTVYLLMNCLKPEDTAVYYCNKRYRFTGIRDPFDYWGQGTQVTVSS | low polyreactivity |
| QVQLVESGGGLVQAGGSLRLSCAASGRIIGRYAMGWYRQAPGKERELVAGITIRGGSTYYADSVKGRITISRDNAKNTVYLQMNSLKPEDTAVYYCAADDKGGLAVEYDYWGQGTQVTVSS | low polyreactivity |
| QVQLVESGGGLVQAGGSLRLSCAASGRIIGSNTMGWYRQAPGKEREFVATISSSGGSTYYADSVKGRFTISRDNAKNTVYLQMNSLKPEDTAVYYCNTRRRYPFRPYPEWRNYYWGHGTQVTVSS | high polyreactivity |
| QVQLVESGGGLVQAGGSLRLSCAASGRIIKFYAMGWYRQAPGKERELVAVIRSGTRTKYADSVKGRFTISRDNAKNTVYLQMNSLKPVDTAVYYCIRYFSEALLHGSSYNRYYYWGQGTQVTVSS | low polyreactivity |
| QVQLVESGGGLVQAGGSLRLSCAASGRIIQRYAMGWYRQAPGKERELVATITFNTASTYYADSVKGRFTISRDNAQNTVYLQMNSLKPEDTAVYYCAAKHRGGYGYWGQGTQVTVSS | high polyreactivity |
| QVQLVESGGGLVQAGGSLRLSCAASGRIIRYYAMGWYRQAPGKERELVAAISKSGGSTYYADSVKGRFTISRDNAKNTVYLQMNSMKREDTAVFFCAAGTSRYVYHSYGKYEYWGQGTQVTVSS | high polyreactivity |
| QVQLVESGGGLVQAGGSLRLSCAASGRIIRYYAMGWYRQAPGKERELVATISRSGGSTFYADSVKGRFTISRDNAKNTVYLQMNSLKPEDTAVYYCNARYQTGGYGYWGQGTQVTVSS | high polyreactivity |
| QVQLVESGGGLVQAGGSLRLSCAASGRIIRYYAMGWYRQAPGKETELVAITSSGGRTYYADSVKGRFTISRDNAKNTVYLQMNSLKPEDTAVYYCAVDAHWPGRGERFIRLDYWGQGTQVSVSS | low polyreactivity |
| QVQLVESGGGLVQAGGSLRLSCAASGRIISRYAMGWYRQAPGKERELVATITWSTTSTYYADSVKGRFTISRDNAKNTVYLQMNSLKPEDTAVYYCAASIIPGFRRDPFGYWGQGTQVTVSS | low polyreactivity |
| QVQLVESGGGLVQAGGSLRLSCAASGRIITKYTMGWYRQAPGKVRELVAAISRSDRTNYADSVKGRFTISRDNAKNTVYLQMNSLKPEDTAVYYCNARHSYWTGRRVTDDYDYRGQGTQVTVSS | high polyreactivity |
| QVQLVESGGGLVQAGGSLRLSCAASGRIITTYAMGWYRQAPGKERELVAAISRSSGSTYYADSVKGRFTISRDNAKNTVYLQMNSLKPEDTAVYYCNAYQRKSGRYDYWGQGTQVTVSS | high polyreactivity |
| QVQLVESGGGLVQAGGSLRLSCAASGRIITWYAMGCYRQAPGKERELVAAISWSGGSTYYADSVTGRFTISRDNAKNTVYLQMNSLKPEDTAVYYCNKVTVTGLYDYWGQGTQVTVSS | high polyreactivity |
| QVQLVESGGGLVQAGGSLRLSCAASGRIIVKYAMRSYRQAPGKERELVAAITNSGGRTYYAACVKGRFTISRDNAKNTVYFQMNSLKPEDTAVYYCAALFHASTRQMDYWGQGTQVTVSS | high polyreactivity |
| QVQLVESGGGLVQAGGSLRLSCAASGRIIVLYAMGWYRQAPGKERELVASIRSGGSTNYADSVKGRFTISRDNAKNTVYLQMNSLKPEDTAVYYCAARIRSVVPFDMDYWGQGTQVTVSS | low polyreactivity |
| QVQLVESGGGLVQAGGSLRLSCAASGRIIVLYAMGWYRQAPGKERELVASIRSGGSTNYADSVKGRFTISRDNAKNTVYLQMNSLKPEDTAVYYCAARPDHKRYDYWGQGTQVTVSS | low polyreactivity |
| QVQLVESGGGLVQAGGSLRLSCAASGRIIVPYVMGWYRLAPGKERELVAAISTSGTSTYYADSVKGRFTISRDNAKNTVYLQMNSLKPEDTAVYYCAKRSGARHRLMDYWGQGTQVTVSS | low polyreactivity |

| Sequence | polyreactivity (PSR sort gate) |
| --- | --- |
| QVQLVESGGGLVQAGGSLRLSCAASGRIIYTNALGWYRQAPGKERELVAAINRSGGITYYADSVKGRFTISRDNAKNTVYLQMNSLKPEDTAVYYCAKDYSWASYNHDYWGQGTQVTVSS | low polyreactivity |
| QVQLVESGGGLVQAGGSLRLSCAASGRILAGYAMGWYRQAPGKERELVAAITRGGTTYYADSVKGRFTISRDNAKYTVYLQMNSLKPEDTAVVYTVSSAQYDYWGQGTQVTVSS | low polyreactivity |
| QVQLVESGGGLVQAGGSLRLSCAASGRILAGYTMGWYRQAPGKERELVAAISDRGGSTYYADSVKGRFTISRDNAKNTVYLQMNSLKPEDTAVYYCNAVVYSYALTPSYAGDYWGQGTQVTVSS | low polyreactivity |
| QVQLVESGGGLVQAGGSLRLSCAASGRILAPYAMGWYRQAPGKERELVAAISASGGTTYYADSVKGRFTISRDNAKNTVYLQMNSLKPEDTAVYYCNARWSPGNLRYGREGDYWGQGTQVTVSS | high polyreactivity |
| QVQLVESGGGLVQAGGSLRLSCAASGRILAYYAMGWYRQAPGKERELVDAINRSGVRTYYADSVKGRFTISRDYAKNTVYLQMNSLKPEDTAVYYCAAPGQHSWGQGTQVTVSS | high polyreactivity |
| QVQLVESGGGLVQAGGSLRLSCAASGRILDANDMGWYRQAPGKERELVAGINSGGSTYYADSVKGRFTISRDNAKNTVYLQMNSLKPEDTAVYYCAAGGVSAKYDYWGQGTQVTVSS | low polyreactivity |
| QVQLVESGGGLVQAGGSLRLSCAASGRILDINTMGWYRHPPGKERELVAAITWSGVSTYYADSVKGRFTISRDNAKNTVYLQMNSLKPEDTAVYYCAARPYYTWRYLPTKSGDYWGQGTQVTVSS | low polyreactivity |
| QVQLVESGGGLVQAGGSLRLSCAASGRILDYNAMGWYIQAPGKERELVAAITLNGGGTYYADSVKGRFTISRDNAKNSVYLQMNSLKPEDTAVYYCNADYRRYPEFDYWGQGTHVTVSS | high polyreactivity |
| QVQLVESGGGLVQAGGSLRLSCAASGRILDYNAMGWYRQAPGKERELVADISGSGDSTYYADSVKGRFTISRDNAKNTVYLQMNSLKPEDTAVYYCNRQTVRPHSRAGYDYWGQGTQVTVSS | low polyreactivity |
| QVQLVESGGGLVQAGGSLRLSCAASGRILELNAMGWYRQAPGKERELVAGISNSGDTTYYADSVKGRFTISRDNAKNTVYLQMNSLKPEDTAVYYCNADGVVTWYDYWGQGTQVTVSS | low polyreactivity |
| QVQLVESGGGLVQAGGSLRLSCAASGRILEYNAMGWYRQAPGKERELVAAITSDGSTNYADSVKGRFTISRDNAKNTVYLQMNSLKPEDTAVYYCNTRYSLYTKYAYYDELDYWGQGTQVTLSS | low polyreactivity |
| QVQLVESGGGLVQAGGSLRLSCAASGRILGGNTMGWYRQAPGKERELVAGISYSGGRTYYADSVKGRFTISRDNAKHTVYLQMNSLKPEDTAVYYCAAEYDWYSYQLDYWGQGTQVTVSS | high polyreactivity |
| QVQLVESGGGLVQAGGSLRLSCAASGRILGNNVMGWYRQAPGKERELVAAITSSGGRTYYADSVKGRFTISRDNAKNTVYLQMNSLKPVDTAVYYCAAERRYYGKFNYWGQGTQVTVSS | high polyreactivity |
| QVQLVESGGGLVQAGGSLRLSCAASGRILGRNAMGWYRQAPGKERELVATITSRGGSTYYADSVKGRFTISRDNAKNTVYLQMNSLKPEDTAVYYCAAPRYYYYSYDYWGQGTQVTVSS | high polyreactivity |
| QVQLVESGGGLVQAGGSLRLSCAASGRILGRYAMGWYRQAPGKERELVAAITARTGSTYYADSVKGRFTISRDNAKNTVYLQMNSLKPEDTAVYYCAAERGWWRNDFDYWGQGTQVTVSS | high polyreactivity |
| QVQLVESGGGLVQAGGSLRLSCAASGRILGTNAKGWYRQAPGKERELVAAISRGGSTYYADSVKGRFTISRDNANNTVYLQMNSLKPEDTAVFYCAVTVLSKRRYYYWGQGTQVTVSS | high polyreactivity |
| QVQLVESGGGLVQAGGSLRLSCAASGRILGYYAMGWYRQAPGKERELVAAISSGDSTNYADSVKGRFTISRDNAKNTVYLQMNSLKPEDTAVYYCAAKGWIWNPYNYWGQGTQVTVSS | low polyreactivity |
| QVQLVESGGGLVQAGGSLRLSCAASGRILHGYAMGWYRQAPGKERELVAAITSSGGRTYYADSVKGRFPISRDNAKNTVYLQMISLKPEDTAVYYCAADRPAYRTGDSKYDYWGQGTQVTVSS | low polyreactivity |
| QVQLVESGGGLVQAGGSLRLSCAASGRILHGYAMGWYRQAPGKERELVAAITSSGGRTYYADSVKGRFTISRDNAKNPVYLQMNSLKPEDTAVYYCAADRPAYRTGESKYDYWGQGTQVTVSS | low polyreactivity |
| QVQLVESGGGLVQAGGSLRLSCAASGRILIGNALGWYRQAPGKERELVAAISKRGGSTYYADSVKGRFTMSRDNAKNTDYLHMNSLKPEDTAVYYCNIESLYREFDYWGQGTLVTVSS | low polyreactivity |
| QVQLVESGGGLVQAGGSLRLSCAASGRILNINAMGWYRQAPGKERELVAAITWRGGRTFYADSVKGRFTISRDNAKNTVYLQMNSLKPEDTAVYYCAKGYRGYSYGYWGQGTQVTVSS | high polyreactivity |
